To fix the notation:
B1: HACE1 L8A (enzyme, human, UniProt Q8IYU2 1-909, looked up)
chain: MERAMEQANRLTRSLRRARTVELPEDNETAVYTLMPMVMADQHRSVSELLSNSKFDVNYAFGRVKRSLLHIAANCGSVECLVLLLKKGANPNYQDISGCTPLHLAARNGQKKCMSKLLEYSADVNICNNEGLTAIHWLAVNGRTELLHDLVQHVSDVDVEDAMGQTALHVACQNGHKTTVQCLLDSGADINRPNVSGATPLYFACSHGQRDTAQILLLRGAKYLPDKNGVTPLDLCVQGGYGETCEVLIQYHPRLFQTIIQMTQNEDLRENMLRQVLEHLSQQSESQYLKILTSLAEVATTNGHKLLSLSSNYDAQMKSLLRIVRMFCHVFRIGPSSPSNGIDMGYNGNKTPRSQVFKPLELLWHSLDEWLVLIATELMKNKRDSTEITSILLKQKGQDQDAASIPPFEPPGPGSYENLSTGTRESKPDALAGRQEASADCQDVISMTANRLSAVIQAFYMCCSCQMPPGMTSPRFIEFVCKHDEVLKCFVNRNPKIIFDHFHFLLECPELMSRFMHIIKAQPFKDRCEWFYEHLHSGQPDSDMVHRPVNENDILLVHRDSIFRSSCEVVSKANCAKLKQGIAVRFHGEEGMGQGVVREWFDILSNEIVNPDYALFTQSADGTTFQPNSNSYVNPDHLNYFRFAGQILGLALNHRQLVNIYFTRSFYKHILGIPVNYQDVASIDPEYAKNLQWILDNDISDLGLELTFSVETDVFGAMEEVPLKPGGGSILVTQNNKAEYVQLVTELRMTRAIQPQINAFLQGFHMFIPPSLIQLFDEYELELLLSGMPEIDVSDWIKNTEYTSGYEREDPVIQWFWEVVEDITQEERVLLLQFVTGSSRVPHGGFANIMGGSGLQNFTIAAVPYTPNLLPTSSTCINMLKLPEYPSKEILKDRLLVALHCGSYGYTMA
notes: HACE1, human, full-length variant; also called Leu8 substituted with alanine; source: E. coli BL21(DE3), purified (IMAC, tag removal, SEC); not shown: His6 (pSKB2) or His10-tandem Z (pN-HZ10-ZZ(3)), N-terminal, cleaved
B2: HACE1 T12E (enzyme, human, UniProt Q8IYU2 1-909, looked up)
chain: MERAMEQLNRLERSLRRARTVELPEDNETAVYTLMPMVMADQHRSVSELLSNSKFDVNYAFGRVKRSLLHIAANCGSVECLVLLLKKGANPNYQDISGCTPLHLAARNGQKKCMSKLLEYSADVNICNNEGLTAIHWLAVNGRTELLHDLVQHVSDVDVEDAMGQTALHVACQNGHKTTVQCLLDSGADINRPNVSGATPLYFACSHGQRDTAQILLLRGAKYLPDKNGVTPLDLCVQGGYGETCEVLIQYHPRLFQTIIQMTQNEDLRENMLRQVLEHLSQQSESQYLKILTSLAEVATTNGHKLLSLSSNYDAQMKSLLRIVRMFCHVFRIGPSSPSNGIDMGYNGNKTPRSQVFKPLELLWHSLDEWLVLIATELMKNKRDSTEITSILLKQKGQDQDAASIPPFEPPGPGSYENLSTGTRESKPDALAGRQEASADCQDVISMTANRLSAVIQAFYMCCSCQMPPGMTSPRFIEFVCKHDEVLKCFVNRNPKIIFDHFHFLLECPELMSRFMHIIKAQPFKDRCEWFYEHLHSGQPDSDMVHRPVNENDILLVHRDSIFRSSCEVVSKANCAKLKQGIAVRFHGEEGMGQGVVREWFDILSNEIVNPDYALFTQSADGTTFQPNSNSYVNPDHLNYFRFAGQILGLALNHRQLVNIYFTRSFYKHILGIPVNYQDVASIDPEYAKNLQWILDNDISDLGLELTFSVETDVFGAMEEVPLKPGGGSILVTQNNKAEYVQLVTELRMTRAIQPQINAFLQGFHMFIPPSLIQLFDEYELELLLSGMPEIDVSDWIKNTEYTSGYEREDPVIQWFWEVVEDITQEERVLLLQFVTGSSRVPHGGFANIMGGSGLQNFTIAAVPYTPNLLPTSSTCINMLKLPEYPSKEILKDRLLVALHCGSYGYTMA
notes: HACE1, human, control phospho-mimetic variant compared with the wild-type dimer ('FL'); source: E. coli BL21(DE3), purified (IMAC, tag removal, SEC); not shown: His6 (pSKB2) or His10-tandem Z (pN-HZ10-ZZ(3)), N-terminal, cleaved
B3: HACE1 L704D (enzyme, human, UniProt Q8IYU2 1-909, looked up)
chain: MERAMEQLNRLTRSLRRARTVELPEDNETAVYTLMPMVMADQHRSVSELLSNSKFDVNYAFGRVKRSLLHIAANCGSVECLVLLLKKGANPNYQDISGCTPLHLAARNGQKKCMSKLLEYSADVNICNNEGLTAIHWLAVNGRTELLHDLVQHVSDVDVEDAMGQTALHVACQNGHKTTVQCLLDSGADINRPNVSGATPLYFACSHGQRDTAQILLLRGAKYLPDKNGVTPLDLCVQGGYGETCEVLIQYHPRLFQTIIQMTQNEDLRENMLRQVLEHLSQQSESQYLKILTSLAEVATTNGHKLLSLSSNYDAQMKSLLRIVRMFCHVFRIGPSSPSNGIDMGYNGNKTPRSQVFKPLELLWHSLDEWLVLIATELMKNKRDSTEITSILLKQKGQDQDAASIPPFEPPGPGSYENLSTGTRESKPDALAGRQEASADCQDVISMTANRLSAVIQAFYMCCSCQMPPGMTSPRFIEFVCKHDEVLKCFVNRNPKIIFDHFHFLLECPELMSRFMHIIKAQPFKDRCEWFYEHLHSGQPDSDMVHRPVNENDILLVHRDSIFRSSCEVVSKANCAKLKQGIAVRFHGEEGMGQGVVREWFDILSNEIVNPDYALFTQSADGTTFQPNSNSYVNPDHLNYFRFAGQILGLALNHRQLVNIYFTRSFYKHILGIPVNYQDVASIDPEYAKNLQWILDNDISDLGDELTFSVETDVFGAMEEVPLKPGGGSILVTQNNKAEYVQLVTELRMTRAIQPQINAFLQGFHMFIPPSLIQLFDEYELELLLSGMPEIDVSDWIKNTEYTSGYEREDPVIQWFWEVVEDITQEERVLLLQFVTGSSRVPHGGFANIMGGSGLQNFTIAAVPYTPNLLPTSSTCINMLKLPEYPSKEILKDRLLVALHCGSYGYTMA
notes: HACE1, human, full-length variant (HECT N-lobe); source: E. coli BL21(DE3), purified (IMAC, tag removal, SEC); not shown: His6 (pSKB2) or His10-tandem Z (pN-HZ10-ZZ(3)), N-terminal, cleaved
B4: HACE1 L15A (enzyme, human, UniProt Q8IYU2 1-909, looked up)
chain: MERAMEQLNRLTRSARRARTVELPEDNETAVYTLMPMVMADQHRSVSELLSNSKFDVNYAFGRVKRSLLHIAANCGSVECLVLLLKKGANPNYQDISGCTPLHLAARNGQKKCMSKLLEYSADVNICNNEGLTAIHWLAVNGRTELLHDLVQHVSDVDVEDAMGQTALHVACQNGHKTTVQCLLDSGADINRPNVSGATPLYFACSHGQRDTAQILLLRGAKYLPDKNGVTPLDLCVQGGYGETCEVLIQYHPRLFQTIIQMTQNEDLRENMLRQVLEHLSQQSESQYLKILTSLAEVATTNGHKLLSLSSNYDAQMKSLLRIVRMFCHVFRIGPSSPSNGIDMGYNGNKTPRSQVFKPLELLWHSLDEWLVLIATELMKNKRDSTEITSILLKQKGQDQDAASIPPFEPPGPGSYENLSTGTRESKPDALAGRQEASADCQDVISMTANRLSAVIQAFYMCCSCQMPPGMTSPRFIEFVCKHDEVLKCFVNRNPKIIFDHFHFLLECPELMSRFMHIIKAQPFKDRCEWFYEHLHSGQPDSDMVHRPVNENDILLVHRDSIFRSSCEVVSKANCAKLKQGIAVRFHGEEGMGQGVVREWFDILSNEIVNPDYALFTQSADGTTFQPNSNSYVNPDHLNYFRFAGQILGLALNHRQLVNIYFTRSFYKHILGIPVNYQDVASIDPEYAKNLQWILDNDISDLGLELTFSVETDVFGAMEEVPLKPGGGSILVTQNNKAEYVQLVTELRMTRAIQPQINAFLQGFHMFIPPSLIQLFDEYELELLLSGMPEIDVSDWIKNTEYTSGYEREDPVIQWFWEVVEDITQEERVLLLQFVTGSSRVPHGGFANIMGGSGLQNFTIAAVPYTPNLLPTSSTCINMLKLPEYPSKEILKDRLLVALHCGSYGYTMA
notes: HACE1, human, full-length variant; also called Leu15 substituted with alanine; source: E. coli BL21(DE3), purified (IMAC, tag removal, SEC); not shown: His6 (pSKB2) or His10-tandem Z (pN-HZ10-ZZ(3)), N-terminal, cleaved
B5: HACE1 L11A (enzyme, human, UniProt Q8IYU2 1-909, looked up)
chain: MERAMEQLNRATRSLRRARTVELPEDNETAVYTLMPMVMADQHRSVSELLSNSKFDVNYAFGRVKRSLLHIAANCGSVECLVLLLKKGANPNYQDISGCTPLHLAARNGQKKCMSKLLEYSADVNICNNEGLTAIHWLAVNGRTELLHDLVQHVSDVDVEDAMGQTALHVACQNGHKTTVQCLLDSGADINRPNVSGATPLYFACSHGQRDTAQILLLRGAKYLPDKNGVTPLDLCVQGGYGETCEVLIQYHPRLFQTIIQMTQNEDLRENMLRQVLEHLSQQSESQYLKILTSLAEVATTNGHKLLSLSSNYDAQMKSLLRIVRMFCHVFRIGPSSPSNGIDMGYNGNKTPRSQVFKPLELLWHSLDEWLVLIATELMKNKRDSTEITSILLKQKGQDQDAASIPPFEPPGPGSYENLSTGTRESKPDALAGRQEASADCQDVISMTANRLSAVIQAFYMCCSCQMPPGMTSPRFIEFVCKHDEVLKCFVNRNPKIIFDHFHFLLECPELMSRFMHIIKAQPFKDRCEWFYEHLHSGQPDSDMVHRPVNENDILLVHRDSIFRSSCEVVSKANCAKLKQGIAVRFHGEEGMGQGVVREWFDILSNEIVNPDYALFTQSADGTTFQPNSNSYVNPDHLNYFRFAGQILGLALNHRQLVNIYFTRSFYKHILGIPVNYQDVASIDPEYAKNLQWILDNDISDLGLELTFSVETDVFGAMEEVPLKPGGGSILVTQNNKAEYVQLVTELRMTRAIQPQINAFLQGFHMFIPPSLIQLFDEYELELLLSGMPEIDVSDWIKNTEYTSGYEREDPVIQWFWEVVEDITQEERVLLLQFVTGSSRVPHGGFANIMGGSGLQNFTIAAVPYTPNLLPTSSTCINMLKLPEYPSKEILKDRLLVALHCGSYGYTMA
notes: HACE1, human, full-length variant; also called Leu11 substituted with alanine; source: E. coli BL21(DE3), purified (IMAC, tag removal, SEC); not shown: His6 (pSKB2) or His10-tandem Z (pN-HZ10-ZZ(3)), N-terminal, cleaved
B6: HACE1 L8D (enzyme, human, UniProt Q8IYU2 1-909, looked up)
chain: MERAMEQDNRLTRSLRRARTVELPEDNETAVYTLMPMVMADQHRSVSELLSNSKFDVNYAFGRVKRSLLHIAANCGSVECLVLLLKKGANPNYQDISGCTPLHLAARNGQKKCMSKLLEYSADVNICNNEGLTAIHWLAVNGRTELLHDLVQHVSDVDVEDAMGQTALHVACQNGHKTTVQCLLDSGADINRPNVSGATPLYFACSHGQRDTAQILLLRGAKYLPDKNGVTPLDLCVQGGYGETCEVLIQYHPRLFQTIIQMTQNEDLRENMLRQVLEHLSQQSESQYLKILTSLAEVATTNGHKLLSLSSNYDAQMKSLLRIVRMFCHVFRIGPSSPSNGIDMGYNGNKTPRSQVFKPLELLWHSLDEWLVLIATELMKNKRDSTEITSILLKQKGQDQDAASIPPFEPPGPGSYENLSTGTRESKPDALAGRQEASADCQDVISMTANRLSAVIQAFYMCCSCQMPPGMTSPRFIEFVCKHDEVLKCFVNRNPKIIFDHFHFLLECPELMSRFMHIIKAQPFKDRCEWFYEHLHSGQPDSDMVHRPVNENDILLVHRDSIFRSSCEVVSKANCAKLKQGIAVRFHGEEGMGQGVVREWFDILSNEIVNPDYALFTQSADGTTFQPNSNSYVNPDHLNYFRFAGQILGLALNHRQLVNIYFTRSFYKHILGIPVNYQDVASIDPEYAKNLQWILDNDISDLGLELTFSVETDVFGAMEEVPLKPGGGSILVTQNNKAEYVQLVTELRMTRAIQPQINAFLQGFHMFIPPSLIQLFDEYELELLLSGMPEIDVSDWIKNTEYTSGYEREDPVIQWFWEVVEDITQEERVLLLQFVTGSSRVPHGGFANIMGGSGLQNFTIAAVPYTPNLLPTSSTCINMLKLPEYPSKEILKDRLLVALHCGSYGYTMA
notes: HACE1, human, full-length variant; source: E. coli BL21(DE3), purified (IMAC, tag removal, SEC); not shown: His6 (pSKB2) or His10-tandem Z (pN-HZ10-ZZ(3)), N-terminal, cleaved

Consider six proteins from paper PMC10873202, “Structural mechanisms of autoinhibition and substrate recognition by the ubiquitin ligase HACE1” (Nature Structural & Molecular Biology, 2024).

This data set deals with the molecule itself. The data set is described as follows: mass photometry; HACE1 samples at 20–40 nM in 25 mM HEPES (pH 8.0), 150 mM NaCl; One^MP mass photometer, BSA calibration.
On to B1, for which the binding result is reported as “binds”.
In the case of B2 it was “binds”; in that of B3, “binds”.
In the case of B4 it was “binds”; in that of B5, “binds”; in that of B6, “binds”.
